Results published in patent EP4786492A1.

B1: mab010 scFv-hFc (Fc fusion, not shown: small tags and cut ends; a dimerising Fc or GST)
scFv (part 1 of 2): DIQMTQSPASLSVSVGETVTITCRASENINSNLAWYQQKQGKSPQLLVYAATNLADGVPSRFSGSGSGTQFSLKISGLQSEDFGSYYCQHFWGLPWTFGGGTKLEIR
scFv (part 2 of 2): QVQLQQSGAELARPGASMKLSCKASGYTFTSYGISWVKQITGQGLEWIGEIFPRSGNTYDNENFRGKATLTADKSSSTAYLEVRSLTSEDSAVYFCARTTVFAPYYFDYWGQGTTLTVSS
B2: mab012 scFv-hFc (Fc fusion, not shown: small tags and cut ends; a dimerising Fc or GST)
scFv (part 1 of 2): DVLMTQTPLSLPVSLGDQASISCRSSQSIVHSDGNTYLEWYLQKPGQSPKLLIYKVSNRFSGVPDRFSGSGSGTDFTLKISRVEAEDLGFYYCFQGSHVPFTFGSGTKLEIK
scFv (part 2 of 2): QVQLQQSGPELVKPGASVKISCKASGYTFTDYYIHWVKQRPGQGLEWIGWTLPGSGSPYYNEKFKGKATLTVDKSSSTAYMLLSSLTSEDSAVYFCARWHYYYGSSYHFDYWGQGTTLTVSS
B3: mab014 scFv-hFc (Fc fusion, not shown: small tags and cut ends; a dimerising Fc or GST)
scFv (part 1 of 2): DIQMTQSSSSFSVSLGDRVTITCKASEDIYNRLAWYQQKPGNTPRLLISGATSLETGVPSRFSGSGSGKDFTLSITSLQTEDVATYYCQQYWSLPWTFGGGTKLEIK
scFv (part 2 of 2): EVQLHQSGPELVKPGTSVKISCKASGYTFTDYYMNWVKQSHGKSLEWIGDINPNHGDTGYNQKFTGKATLTVDKSSSTAYMELRSLTSEDSAVYYCARNFFYYGTTYGWYFDVWGTGTTVTVSS
B4: mab011 scFv-hFc (Fc fusion, not shown: small tags and cut ends; a dimerising Fc or GST)
scFv (part 1 of 2): DIVLTQSPATLSVTPGDSVSLSCRASQSISNNLHWYQQKSHESPRLLIKYASQSISGIPSRFSGSGSGTDFTLSINSVETEDFGMYFCQQSNSWPWTFGGGTKLEIK
scFv (part 2 of 2): EVQLQQSGPELVKPGASVKISCKASGYTFTDYYMNWVKQSHGKSLEWIGDISPNYGGTNYNQKFKGKATLTVDKSSSTACMELRSLTSEDSAVYYCTRSFYYYGTGYDWYFDVWGTGTTVTVSS
B5: mab016 scFv-hFc (Fc fusion, not shown: small tags and cut ends; a dimerising Fc or GST)
scFv (part 1 of 2): DIVMTQSQKFMSTTIGDRVSITCKASQNVGTTVAWYQQKPGQSPNLLLYSTSNRFTGVPDRFTGSGSGTDFTLTITNMQSEDLADYFCQQYNNYPLTFGGGTKLEIK
scFv (part 2 of 2): EVNLEESGGGLVQPGGSMKLSCVASGFAFSNFWMQWVRQSPEKGLEWVAQIRLKSDNYAAHYAESVKGRFTISRDDSKSSVYLQLNNLRAEDTGTYYCTQGNWVGFAYWGQGTLVTVSA

Experiments:
[1] = molecular target: human DLL3 endogenously expressed on SHP77 and NCI-H82 cells (human) (UniProt Q9NYJ7); test: FACS SHP77 cells, 100 nM
[2] = molecular target: human DLL3 endogenously expressed on SHP77 and NCI-H82 cells (human) (UniProt Q9NYJ7); test: FACS SHP77 cells, 0.00128 nM
[3] = molecular target: human DLL3 endogenously expressed on SHP77 and NCI-H82 cells (human) (UniProt Q9NYJ7); test: FACS SHP77 cells, 4 nM
[4] = molecular target: human DLL3 endogenously expressed on SHP77 and NCI-H82 cells (human) (UniProt Q9NYJ7); test: FACS SHP77 cells, 20 nM
[5] = molecular target: human DLL3 endogenously expressed on SHP77 and NCI-H82 cells (human) (UniProt Q9NYJ7); test: FACS SHP77 cells, 0.032 nM
[6] = molecular target: human DLL3 endogenously expressed on SHP77 and NCI-H82 cells (human) (UniProt Q9NYJ7); test: FACS SHP77 cells, 0.16 nM
[7] = molecular target: human DLL1 protein (human) (UniProt O00548); test: ELISA, maximum over 0.1-100 nM
[8] = molecular target: human DLL4 protein (human) (UniProt Q9NR61); test: ELISA, maximum over 0.1-100 nM
[9] = molecular target: human DLL3 endogenously expressed on SHP77 and NCI-H82 cells (human) (UniProt Q9NYJ7); test: FACS SHP77 cells, 0.8 nM
[10] = molecular target: human DLL3 endogenously expressed on SHP77 and NCI-H82 cells (human) (UniProt Q9NYJ7); test: FACS SHP77 cells, 0.0064 nM

Chain of human DLL3 endogenously expressed on SHP77 and NCI-H82 cells (human) (Q9NYJ7 27-618): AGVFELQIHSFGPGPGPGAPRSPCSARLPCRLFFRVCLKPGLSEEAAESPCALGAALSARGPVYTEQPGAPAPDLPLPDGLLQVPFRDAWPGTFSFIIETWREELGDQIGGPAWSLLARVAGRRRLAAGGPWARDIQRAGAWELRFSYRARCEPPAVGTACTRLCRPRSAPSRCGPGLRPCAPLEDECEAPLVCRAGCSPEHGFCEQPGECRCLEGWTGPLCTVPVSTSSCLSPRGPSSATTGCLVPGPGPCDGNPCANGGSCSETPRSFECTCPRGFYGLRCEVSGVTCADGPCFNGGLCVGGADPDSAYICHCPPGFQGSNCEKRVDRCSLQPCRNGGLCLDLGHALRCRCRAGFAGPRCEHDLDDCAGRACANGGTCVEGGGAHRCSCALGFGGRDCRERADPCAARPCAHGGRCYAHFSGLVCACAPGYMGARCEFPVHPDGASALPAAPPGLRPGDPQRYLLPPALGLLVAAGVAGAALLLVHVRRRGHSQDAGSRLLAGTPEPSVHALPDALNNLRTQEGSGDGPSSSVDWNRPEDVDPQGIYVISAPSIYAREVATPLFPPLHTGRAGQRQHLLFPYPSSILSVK
Chain of human DLL4 protein (human) (Q9NR61 27-524 limits assumed): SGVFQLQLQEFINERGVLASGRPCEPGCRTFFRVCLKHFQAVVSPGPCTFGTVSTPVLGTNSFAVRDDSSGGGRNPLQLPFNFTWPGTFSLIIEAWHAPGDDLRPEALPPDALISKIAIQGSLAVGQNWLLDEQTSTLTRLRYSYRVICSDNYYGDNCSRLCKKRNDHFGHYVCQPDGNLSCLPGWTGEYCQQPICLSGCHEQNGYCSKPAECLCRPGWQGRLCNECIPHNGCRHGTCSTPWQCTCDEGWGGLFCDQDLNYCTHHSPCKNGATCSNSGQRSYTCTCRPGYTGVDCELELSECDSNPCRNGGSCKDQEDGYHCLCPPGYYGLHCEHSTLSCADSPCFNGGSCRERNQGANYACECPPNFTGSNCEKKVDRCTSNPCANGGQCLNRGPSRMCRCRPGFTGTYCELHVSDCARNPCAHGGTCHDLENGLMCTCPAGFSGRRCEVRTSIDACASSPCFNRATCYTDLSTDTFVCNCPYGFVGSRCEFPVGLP
Chain of human DLL1 protein (human) (O00548 18-540 limits assumed): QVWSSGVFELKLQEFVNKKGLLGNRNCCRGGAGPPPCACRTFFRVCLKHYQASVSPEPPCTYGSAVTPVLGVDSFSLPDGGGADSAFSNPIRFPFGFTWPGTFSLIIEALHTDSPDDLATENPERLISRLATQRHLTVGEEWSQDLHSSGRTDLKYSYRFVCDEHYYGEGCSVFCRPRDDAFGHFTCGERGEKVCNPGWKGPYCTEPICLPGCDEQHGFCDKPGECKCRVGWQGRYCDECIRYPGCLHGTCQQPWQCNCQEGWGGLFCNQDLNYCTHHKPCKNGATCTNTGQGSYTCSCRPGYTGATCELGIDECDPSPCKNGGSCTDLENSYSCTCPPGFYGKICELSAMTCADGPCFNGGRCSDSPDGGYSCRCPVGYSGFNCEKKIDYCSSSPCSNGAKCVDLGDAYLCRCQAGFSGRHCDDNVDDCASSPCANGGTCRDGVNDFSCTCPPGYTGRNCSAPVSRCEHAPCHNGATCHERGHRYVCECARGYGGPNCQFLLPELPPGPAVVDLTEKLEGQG

Binder | MFI [1] | MFI [2] | MFI [3] | MFI [4] | MFI [5] | MFI [6] | Emax of OD450 nm binding value [7] | Emax of OD450 nm binding value [8] | MFI [9] | MFI [10]
B1 | 1140 MFI | 113 MFI | 707 MFI | 855 MFI | 278 MFI | 523 MFI | 1.16 OD450 | 0.06 OD450 | 619 MFI | 161 MFI
B2 | 1100 MFI | 94 MFI | 337 MFI | 729 MFI | 98 MFI | 110 MFI | – | – | 164 MFI | 94 MFI
B3 | 1200 MFI | 96 MFI | 681 MFI | 829 MFI | 137 MFI | 237 MFI | – | – | 461 MFI | 104 MFI
B4 | 822 MFI | 90 MFI | 508 MFI | 608 MFI | 146 MFI | 239 MFI | – | – | 417 MFI | 103 MFI
B5 | 790 MFI | 96 MFI | 546 MFI | 653 MFI | 202 MFI | 391 MFI | – | – | 502 MFI | 121 MFI
